Laboratory results from patent US20160305947A1 (Merck Sharp & Dohme, published 2016).

Target: T1, human PD-L1 (Programmed Cell Death 1 Ligand 1) (human, UniProt Q9NZQ7 19-290)
T1 construct: whole, on cells; The target is the endogenous protein in FFPE tumor tissue after antigen retrieval, not a recombinant construct; also called B7-H1; PDCD1L1
Experiment: IHC staining of FFPE human melanoma sections (chromogenic DAB and TSA fluorescence)
Description: After deparaffinization, antigens were retrieved by immersing the slides into Flex TRS (high pH) and allowing the temperature inside the PT Link to reach 97° C. for 20 minutes. Once this time elapsed, the chamber temperature was cooled to 75° C. Slides were removed from the PT Link and cooled to room temperature in Flex wash buffer.
Single parameter chromogenic immunohistochemical staining was performed using a mouse monoclonal anti-PD-L1 antibody (clone 22C3) and the brown DAB chromogen (FIG. 1, left column) Multiparametric fluorescence immunohistochemistry was performed using the protocol detailed in Example 1. In brief, formalin-fixed paraffin-embedded sections were stained using an anti-PD1 antibody (polyclonal goat anti-hPD-1, green) and an anti-PD-L1 antibody (clone 22C3, red). Representative patterns of PD-1 and PD-L1 are depicted in the images in the right-hand column. […] PD-L1 can be identified as being either (1) spatially apart from PD-1+ T cells (A, right); (2) associated with a minimal PD-1+ infiltrate (B, right); (3) expressed in the absence of concomitant PD-1+ T cells (C, right); or (4) strongly expressed in tight spatial proximity to PD-1+CD8 T cells (D, right).

T1 sequence (Q9NZQ7 19-290): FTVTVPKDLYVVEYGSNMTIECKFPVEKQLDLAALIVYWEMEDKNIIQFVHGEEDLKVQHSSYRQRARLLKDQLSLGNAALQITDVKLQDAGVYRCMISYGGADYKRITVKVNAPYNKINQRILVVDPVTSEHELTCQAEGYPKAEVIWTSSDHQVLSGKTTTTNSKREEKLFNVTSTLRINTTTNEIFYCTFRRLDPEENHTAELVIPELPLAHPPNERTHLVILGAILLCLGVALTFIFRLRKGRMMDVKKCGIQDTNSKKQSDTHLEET

B1: Mouse anti-human PD-L1 mAb (Clone 22C3) (antibody, mouse IgG1, kappa, V domains shown)
VH: QVHLQQSGAELAKPGASVKMSCKASGYTFTSYWIHWIKQRPGQGLEWIGYINPSSGYHEYNQKFIDKATLTADRSSSTAYMHLTSLTSEDSAVYYCARSGWLIHGDYYFDFWGQGTTLTVSS
VL: DIVMSQSPSSLAVSAGEKVTMTCKSSQSLLHTSTRKNYLAWYQQKPGQSPKLLIYWASTRESGVPDRFTGSGSGTDFTLTISSVQAEDLAVYYCKQSYDVVTFGAGTKLELKR
notes: Mouse IgG1, made in house, used at 2 ug/mL as the primary antibody in IHC; also called antibody 22C3; mouse monoclonal anti-PD-L1 antibody (clone 22C3)
- binding result: binds
